Laboratory results taken from publication PMC7452893 (Nature Communications, 2020).
Changes are numbered by the printed parent chain.

B1: MD63 (antibody, V domains shown)
VH: QVTLKESGGGVVQPGRSLRLSCAASGFTFSSYAMHWVRQAPGKGLEHVSAISSDGGITYFADSVKGRFTISRDNSRNTLFLQMSSLRVEDTAVYYCVKDQDSNSWYDAFDIWGRGTMVTVSS
VL: not shown
notes: scFv-Fc format; also called MD63 scFv-Fc
B2: MD45 (antibody, V domains shown)
VH: EVQLVQSGGGLVQPGGSLRLSCAASGFTVSSNYMTWVRQAPGKGLEWVSVIYSGGSTFYADSVKGRFTISRHNSKNTLYLQMNSLRAEDTAVYYCARDLSVRGGMDVWGQGTMVTVSS
VL: EIVLTQSPGTLSLSPGERATLSCRASQSVNSSYLAWYQQKPGQAPRLLIYGASNRATGIPDRFSGSGSGTDFTLTISRLEPEDFAVYYCQQYGVSPEIIFGQGTRLEIK
notes: scFv-Fc format; also called MD45 scFv-Fc
B3: MD47 (antibody, V domains shown)
V domain 1: QMQLVQSGGGLVQPGGSLRLSCAASGFTFSSYAMSWVRQAPGKGLEWVSAISSGGSTYYADSVKGRFTISRDNSKNTLYLQMNSLRAEDTAVYYCAKDLVTAPSYEAFDIWGQGTMITVSS
V domain 2: NFMLTQPPSVSVAPGKTARITCGGNNIGSKSVHWYQQKPGQAPVLVIYYDSDRPSGIPERFSGSNSGNTATLTISRVEAGDEADYYCQVWDSSSHHHVVFGGGTKGTVL
notes: scFv-Fc format; also called MD47 scFv-Fc
B4: MD62 (antibody, V domains shown)
VH: EVQLVQSGGGLIQPGGSLRLSCAASGVTVSSNYMTWVRQAPGKGLEWVSLIYSGGSTYYADSVKGRFTISRDNSKNTLYLQMNSLRAEDTAVYYCARDLQYYGMDVWGQGTMVTVSS
VL: AIRMTQSPSSVSASVGDRVTITCRASQDIGSWLGWYQQKPGKAPKLLIYAASSLAGGVPSRFSGSGSGTDFTLTISSLQPEDFATYYCQQANSFPLTFGGGTKLEIK
notes: scFv-Fc format; also called MD62 scFv-Fc
B5: MD17 (antibody, V domains shown)
VH: EVQLLESGGGLVQPGGSLRLSCSASGFTFSTYVMNWVRQAPGKGLEHVSGISSDGGITYYADSVKGRFTISRDNSKNTLYLQMSSLRVEDTAVYYCVKDQDSSSWYDAFDIWGQGTMVTVSS
VL: DIVMTQSPSSLSASVGDRVTITCRASQSISNYLNWYQQKLGKAPKLLTYAASRLQSGVPSRFSASGSGTEFTLTISSLQPEDFATYYCQQSYTTPLTFGGGTKLEIK
notes: scFv-Fc format; also called MD17 scFv-Fc
B6: MD29 (antibody, V domains shown)
VH: B5 VH with E1Q, V2M, L5V, E6Q, L45P
VL: NIRLTQSPSSLSASVGDRVTITCRATQSISSYLNWYQQKPGKAPNLLIYAASSLQSGVPSRFSGSGSGTDFTLTISSLQPEDFATYYCHQTYTSPYTFGQGTKLEIK
notes: scFv-Fc format; also called MD29 scFv-Fc
B7: MD67 (antibody, V domains shown)
VH: B2 VH with Q6E, M113T
VL: not shown
notes: scFv-Fc format; also called MD67 scFv-Fc

These binders were tested against T1, SARS-CoV-2 spike S1 subunit (SARS-CoV-2, Wuhan-Hu-1 (QHD43416), UniProt P0DTC2) (assay: ELISA; direct ELISA; S1 as coating antigen (2 μg/ml), antibody diluted in series; apparent KD (Fig. 1d)). Details: both partners purified.
T1 construct: also called S1 domain

| Binder | Kd |
| --- | --- |
| B1 | 15.6 nM |
| B2 | 12.7 nM |

The binders below were run against SARS-CoV-2 spike N-terminal domain (NTD) (SARS-CoV-2, Wuhan-Hu-1 (QHD43416), UniProt P0DTC2) (assay: ELISA; direct ELISA; plates coated with 2 μg/ml recombinant spike, S1, RBD or NTD; scFv-Fc detected with AP-conjugated anti-human IgG; specificity panel (Fig. 1c)). Details: both partners purified.

| Binder | binding result |
| --- | --- |
| B3 | no binding |
| B1 | no binding |
| B4 | no binding |
| B5 | no binding |
| B6 | no binding |
| B2 | no binding |
| B7 | no binding |

The binders below were run against T1, SARS-CoV-2 spike S1 subunit in the same assay as above. Details: both partners purified.

| Binder | binding result |
| --- | --- |
| B3 | binds |
